Test results from patent US20230295310A1.

Target: human CD3 expressed on cells (human) (UniProt P07766)
Experiment: flow cytometry, 25 nM

human CD3 expressed on cells (human), sequence (P07766 23-207, chain 1 of 3): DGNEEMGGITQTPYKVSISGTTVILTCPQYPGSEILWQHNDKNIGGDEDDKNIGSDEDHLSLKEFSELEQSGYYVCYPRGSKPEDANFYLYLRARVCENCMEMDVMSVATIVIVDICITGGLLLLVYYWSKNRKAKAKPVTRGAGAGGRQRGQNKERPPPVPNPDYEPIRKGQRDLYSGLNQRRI
human CD3 expressed on cells (human), sequence (P04234 22-171, chain 2 of 3, further chain): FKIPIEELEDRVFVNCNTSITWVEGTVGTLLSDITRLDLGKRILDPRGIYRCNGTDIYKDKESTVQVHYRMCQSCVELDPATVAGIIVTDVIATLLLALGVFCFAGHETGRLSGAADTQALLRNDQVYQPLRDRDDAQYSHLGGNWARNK
human CD3 expressed on cells (human), sequence (P09693 23-182, chain 3 of 3, further chain): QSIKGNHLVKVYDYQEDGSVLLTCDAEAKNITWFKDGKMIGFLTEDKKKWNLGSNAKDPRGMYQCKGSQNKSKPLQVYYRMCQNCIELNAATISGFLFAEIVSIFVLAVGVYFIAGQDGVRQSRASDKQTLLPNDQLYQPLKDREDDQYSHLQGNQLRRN

Human primary T Cell Binding (FOI): 1.4 FOI
B1: mAb 109 (antibody, V domains shown)
VH: QVQLVESGGGVVQPGRSLRLSCVASGFPFRSYGMHWVRQAPGKGLEWVAFIWYDGSNKYYADSVRGRFTISRDNFKKMVYLQMNSLRAEDTAVYYCARDLAGIYAFDVWGQGTVVTVSS
VL: EIVMTQSPATLSVSPGERATLSCRASQSVSSNLAWYQQKPGQAPRLLIYGASTRATGIPARFSGSGSGTEFTLTVSSLQSEDFAIYYCQQYNNWRPLTFGGGTKVEIK
